Source: article PMC6774794 (Nature structural & molecular biology, 2019)

B1: dynein-2 intermediate chain WDR34 (natural protein)
chain: MATRAQPGPLSQAGSAGVAALATVGVASGPGPGRPGPLQDETLGVASVPSQWRAVQGIRWETKSCQTASIATASASAQARNHVDAQVQTEAPVPVSVQPPSQYDIPRLAAFLRRVEAMVIRELNKNWQSHAFDGFEVNWTEQQQMVSCLYTLGYPPAQAQGLHVTSISWNSTGSVVACAYGRLDHGDWSTLKSFVCAWNLDRRDLRPQQPSAVVEVPSAVLCLAFHPTQPSHVAGGLYSGEVLVWDLSRLEDPLLWRTGLTDDTHTDPVSQVVWLPEPGHSHRFQVLSVATDGKVLLWQGIGVGQLQLTEGFALVMQQLPRSTKLKKHPRGETEVGATAVAFSSFDPRLFILGTEGGFPLKCSLAAGEAALTRMPSSVPLRAPAQFTFSPHGGPIYSVSCSPFHRNLFLSAGTDGHVHLYSMLQAPPLTSLQLSLKYLFAVRWSPVRPLVFAAASGKGDVQLFDLQKSSQKPTVLIKQTQDESPVYCLEFNSQQTQLLAAGDAQGTVKVWQLSTEFTEQGPREAEDLDCLAAEVAA

Key:
[1] = target: dynein light chain LC8 (DYNLL1/2) (human) (UniProt P63167); experiment: cryo-EM structure
[2] = target: T1, dynein-2 intermediate chain WDR60 (human, UniProt Q8WVS4); experiment: cryo-EM structure
T1 sequence: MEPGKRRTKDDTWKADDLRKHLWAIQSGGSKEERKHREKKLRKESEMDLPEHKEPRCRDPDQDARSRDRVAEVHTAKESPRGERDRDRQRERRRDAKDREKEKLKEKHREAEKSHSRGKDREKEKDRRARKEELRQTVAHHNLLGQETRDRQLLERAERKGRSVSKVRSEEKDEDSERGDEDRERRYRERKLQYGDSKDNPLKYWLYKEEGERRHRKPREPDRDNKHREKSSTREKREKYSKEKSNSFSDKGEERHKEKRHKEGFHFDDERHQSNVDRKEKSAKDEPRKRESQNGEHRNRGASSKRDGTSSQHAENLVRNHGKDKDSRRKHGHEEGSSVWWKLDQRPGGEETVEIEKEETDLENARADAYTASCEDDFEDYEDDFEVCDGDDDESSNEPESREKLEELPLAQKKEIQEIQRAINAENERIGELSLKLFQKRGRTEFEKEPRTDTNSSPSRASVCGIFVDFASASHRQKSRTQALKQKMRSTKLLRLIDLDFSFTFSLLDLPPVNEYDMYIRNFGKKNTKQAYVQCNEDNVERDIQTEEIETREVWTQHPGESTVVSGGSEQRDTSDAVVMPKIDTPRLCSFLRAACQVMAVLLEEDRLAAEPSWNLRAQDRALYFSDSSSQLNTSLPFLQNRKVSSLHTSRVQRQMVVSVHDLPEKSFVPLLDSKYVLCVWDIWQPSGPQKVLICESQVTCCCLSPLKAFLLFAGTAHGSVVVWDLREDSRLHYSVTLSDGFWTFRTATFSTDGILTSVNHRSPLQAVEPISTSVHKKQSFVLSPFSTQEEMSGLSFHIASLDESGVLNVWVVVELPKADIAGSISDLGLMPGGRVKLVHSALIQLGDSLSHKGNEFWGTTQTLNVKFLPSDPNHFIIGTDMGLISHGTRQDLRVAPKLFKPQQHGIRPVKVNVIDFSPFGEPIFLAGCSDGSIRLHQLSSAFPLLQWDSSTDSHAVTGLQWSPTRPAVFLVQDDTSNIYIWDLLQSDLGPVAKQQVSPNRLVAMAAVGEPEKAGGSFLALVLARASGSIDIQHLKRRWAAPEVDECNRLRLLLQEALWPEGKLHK

Row | Molecule | stoichiometry N [1] | binding result [2]
1 | dynein light chain LC8 (DYNLL1/2) (from UniProt P63167) (natural protein) | 2 | –
2 | B1 | – | binds
